# Test results published in the supplement of paper PMC9112550, “Optimization of the antimicrobial peptide Bac7 by deep mutational scanning” (BMC Biology, 2022).
# Test system: Escherichia coli TOP10
# Assay: shrunken log2 fold change of peptide-encoding DNA abundance (4.5 h post-induction vs induction); higher = less antimicrobial activity (less host growth inhibition)
# Details: time post-induction: 4.5 h; library: site-saturation at positions 5, 18, 19, 20
# 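Note: peptides expressed intracellularly from a pBAD plasmid library in pooled LB shake-flask culture, induced with 0.3% L-arabinose, DNA abundance read by NGS, three biological replicates, DESeq2 with apeglm shrinkage.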
row,Sequence,shrunken log2 fold change
1,RRIRSRPPRLPRPRPRPQKWPRP,-0.0746
2,RRIRVRPPRLPRPRPRPSCFPRP,-0.264
3,RRIRGRPPRLPRPRPRPGLPPRP,0.747
4,RRIRHRPPRLPRPRPRPQSCPRP,-0.0062
5,RRIRMRPPRLPRPRPRPSYHPRP,-0.402
6,RRIRQRPPRLPRPRPRPWKKPRP,-0.000921
7,RRIRPRPPRLPRPRPRPSKSPRP,-0.123
8,RRIRTRPPRLPRPRPRPCTEPRP,-0.237
9,RRIRLRPPRLPRPRPRPCAEPRP,0.395
10,RRIRHRPPRLPRPRPRPIMEPRP,-0.545
11,RRIRQRPPRLPRPRPRPCPVPRP,-0.477
12,RRIRVRPPRLPRPRPRPVRCPRP,0.145
13,RRIRMRPPRLPRPRPRPNVDPRP,0.0854
14,RRIRHRPPRLPRPRPRPIYDPRP,-0.436
15,RRIRTRPPRLPRPRPRPLVAPRP,0.106
16,RRIRYRPPRLPRPRPRPFRFPRP,-0.83
17,RRIRSRPPRLPRPRPRPYQGPRP,-0.129
18,RRIRVRPPRLPRPRPRPANWPRP,0.224
19,RRIRKRPPRLPRPRPRPVSYPRP,-0.227
20,RRIRYRPPRLPRPRPRPCCNPRP,0.00367
21,RRIRNRPPRLPRPRPRPSCFPRP,-0.398
22,RRIRDRPPRLPRPRPRPIQYPRP,-0.0088

row,Sequence,shrunken log2 fold change
1,RRIRMRPPRLPRPRPRPIIYPRP,-0.732
2,RRIRRRPPRLPRPRPRPSAEPRP,0.716
3,RRIRMRPPRLPRPRPRPELAPRP,3.6
4,RRIRHRPPRLPRPRPRPAQFPRP,-0.0111
5,RRIRVRPPRLPRPRPRPMNIPRP,-0.604
6,RRIRQRPPRLPRPRPRPTFRPRP,-0.232
7,RRIRQRPPRLPRPRPRPRLRPRP,0.44
8,RRIRTRPPRLPRPRPRPWHIPRP,-0.115
9,RRIRERPPRLPRPRPRPSWRPRP,-0.0751
10,RRIRHRPPRLPRPRPRPLCSPRP,-0.285
11,RRIRCRPPRLPRPRPRPFSAPRP,-0.565
12,RRIRARPPRLPRPRPRPPYSPRP,-0.0108
13,RRIRKRPPRLPRPRPRPVYFPRP,-0.181
14,RRIRRRPPRLPRPRPRPMPRPRP,0.811
15,RRIRGRPPRLPRPRPRPNISPRP,0.231
16,RRIRGRPPRLPRPRPRPHPWPRP,0.345
17,RRIRIRPPRLPRPRPRPWQGPRP,-0.125
18,RRIRWRPPRLPRPRPRPEIWPRP,1
19,RRIRSRPPRLPRPRPRPDYRPRP,-0.0371
20,RRIRGRPPRLPRPRPRPQGDPRP,0.824
21,RRIRDRPPRLPRPRPRPRWMPRP,-0.176
22,RRIRFRPPRLPRPRPRPWGPPRP,-0.106

row,Sequence,shrunken log2 fold change
1,RRIRWRPPRLPRPRPRPEYEPRP,-0.0434
2,RRIRIRPPRLPRPRPRPGCWPRP,0.312
3,RRIRFRPPRLPRPRPRPNNEPRP,-0.265
4,RRIRMRPPRLPRPRPRPGHHPRP,0.209
5,RRIRIRPPRLPRPRPRPTEKPRP,0.0176
6,RRIRFRPPRLPRPRPRPGCCPRP,0.258
7,RRIRARPPRLPRPRPRPFNGPRP,0.0657
8,RRIRDRPPRLPRPRPRPWMRPRP,0.013
9,RRIRPRPPRLPRPRPRPDQCPRP,0.139
10,RRIRFRPPRLPRPRPRPNSMPRP,-1.01
11,RRIRRRPPRLPRPRPRPPIMPRP,-0.0528
12,RRIRKRPPRLPRPRPRPYHMPRP,-0.0573
13,RRIRPRPPRLPRPRPRPPANPRP,0.418
14,RRIRFRPPRLPRPRPRPSTPPRP,-0.463
15,RRIRWRPPRLPRPRPRPPWKPRP,0.24
16,RRIRERPPRLPRPRPRPGPGPRP,0.268
17,RRIRCRPPRLPRPRPRPTGLPRP,0.106
18,RRIRNRPPRLPRPRPRPDDWPRP,0.221
19,RRIRARPPRLPRPRPRPNKVPRP,-0.108
20,RRIRKRPPRLPRPRPRPDTVPRP,0.00611
21,RRIRFRPPRLPRPRPRPAHLPRP,-0.0824
22,RRIRFRPPRLPRPRPRPTGNPRP,-0.245

row,Sequence,shrunken log2 fold change
1,RRIRARPPRLPRPRPRPDPYPRP,-0.169
2,RRIRNRPPRLPRPRPRPHACPRP,0.0169
3,RRIRRRPPRLPRPRPRPFNSPRP,0.0474
4,RRIRIRPPRLPRPRPRPHGMPRP,0.0429
5,RRIRYRPPRLPRPRPRPDSSPRP,-0.0431
6,RRIRARPPRLPRPRPRPIILPRP,-0.262
7,RRIRIRPPRLPRPRPRPTSVPRP,-0.18
8,RRIRMRPPRLPRPRPRPFVRPRP,-0.01
9,RRIRGRPPRLPRPRPRPEMIPRP,1.92
10,RRIRTRPPRLPRPRPRPGLSPRP,0.0345
11,RRIRPRPPRLPRPRPRPMMHPRP,-0.0262
12,RRIRNRPPRLPRPRPRPQTMPRP,-0.238
13,RRIRQRPPRLPRPRPRPKTSPRP,-0.15
14,RRIRNRPPRLPRPRPRPLISPRP,3.16
15,RRIRRRPPRLPRPRPRPRYMPRP,-0.378
16,RRIRSRPPRLPRPRPRPTHNPRP,-0.133
17,RRIRVRPPRLPRPRPRPRCHPRP,0.115
18,RRIRVRPPRLPRPRPRPHRSPRP,-0.164
19,RRIRHRPPRLPRPRPRPRWDPRP,0.127
20,RRIRFRPPRLPRPRPRPEVQPRP,0.00737
21,RRIRFRPPRLPRPRPRPQEAPRP,0.201
22,RRIRVRPPRLPRPRPRPRIFPRP,0.137

row,Sequence,shrunken log2 fold change
1,RRIRVRPPRLPRPRPRPEKKPRP,-0.0337
2,RRIRHRPPRLPRPRPRPGSWPRP,0.112
3,RRIRKRPPRLPRPRPRPQKKPRP,-0.111
4,RRIRFRPPRLPRPRPRPRFQPRP,0.0731
5,RRIRFRPPRLPRPRPRPYMPPRP,-1.09
6,RRIRIRPPRLPRPRPRPFPIPRP,0.0234
7,RRIRWRPPRLPRPRPRPNRPPRP,0.078
8,RRIRYRPPRLPRPRPRPNYGPRP,-0.0594
9,RRIRSRPPRLPRPRPRPSGIPRP,-0.169
10,RRIRLRPPRLPRPRPRPYYFPRP,-0.767
11,RRIRLRPPRLPRPRPRPGISPRP,-0.00752
12,RRIRWRPPRLPRPRPRPCEWPRP,0.0102
13,RRIRGRPPRLPRPRPRPKFAPRP,0.684
14,RRIRHRPPRLPRPRPRPQLRPRP,-0.343
15,RRIRSRPPRLPRPRPRPSVEPRP,-0.0505
16,RRIRRRPPRLPRPRPRPQSYPRP,-0.0292
17,RRIRVRPPRLPRPRPRPNPPPRP,0.231
18,RRIRIRPPRLPRPRPRPTSKPRP,-0.207
19,RRIRDRPPRLPRPRPRPQRGPRP,0.0499
20,RRIRSRPPRLPRPRPRPQAAPRP,0.544
21,RRIRTRPPRLPRPRPRPNKGPRP,-0.28
